# Test results reported in patent US20190153061A1.
# B1: BCMA-5 CAR (139104) (protein)
# chain: EVQLLETGGGLVQPGGSLRLSCAVSGFALSNHGMSWVRRAPGKGLEWVSGIVYSGSTYYAASVKGRFTISRDNSRNTLYLQMNSLRPEDTAIYYCSAHGGESDVWGQGTTVTVSSASGGGGSGGRASGGGGSEIVLTQSPATLSVSPGESATLSCRASQSVSSNLAWYQQKPGQAPRLLIYGASTRASGIPDRFSGSGSGTDFTLTISSLQAEDVAVYYCQQYGSSLTFGGGTKVEIKTTTPAPRPPTPAPTIASQPLSLRPEACRPAAGGAVHTRGLDFACDIYIWAPLAGTCGVLLLSLVITLYCKRGRKKLLYIFKQPFMRPVQTTQEEDGCSCRFPEEEEGGCELRVKFSRSADAPAYKQGQNQLYNELNLGRREEYDVLDKRRGRDPEMGGKPRRKNPQEGLYNELQKDKMAEAYSEIGMKGERRRGKGHDGLYQGLSTATKDTYDALHMQALPPR
# B2: BCMA-4 CAR (139103) (protein)
# chain: QVQLVESGGGLVQPGRSLRLSCAASGFTFSNYAMSWVRQAPGKGLGWVSGISRSGENTYYADSVKGRFTISRDNSKNTLYLQMNSLRDEDTAVYYCARSPAHYYGGMDVWGQGTTVTVSSASGGGGSGGRASGGGGSDIVLTQSPGTLSLSPGERATLSCRASQSISSSFLAWYQQKPGQAPRLLIYGASRRATGIPDRFSGSGSGTDFTLTISRLEPEDSAVYYCQQYHSSPSWTFGQGTKLEIKTTTPAPRPPTPAPTIASQPLSLRPEACRPAAGGAVHTRGLDFACDIYIWAPLAGTCGVLLLSLVITLYCKRGRKKLLYIFKQPFMRPVQTTQEEDGCSCRFPEEEEGGCELRVKFSRSADAPAYKQGQNQLYNELNLGRREEYDVLDKRRGRDPEMGGKPRRKNPQEGLYNELQKDKMAEAYSEIGMKGERRRGKGHDGLYQGLSTATKDTYDALHMQALPPR
# B3: BCMA-7 CAR (139106) (protein)
# chain: EVQLVETGGGLVQPGGSLRLSCAVSGFALSNHGMSWVRRAPGKGLEWVSGIVYSGSTYYAASVKGRFTISRDNSRNTLYLQMNSLRPEDTAIYYCSAHGGESDVWGQGTTVTVSSASGGGGSGGRASGGGGSEIVMTQSPATLSVSPGERATLSCRASQSVSSKLAWYQQKPGQAPRLLMYGASIRATGIPDRFSGSGSGTEFTLTISSLEPEDFAVYYCQQYGSSSWTFGQGTKVEIKTTTPAPRPPTPAPTIASQPLSLRPEACRPAAGGAVHTRGLDFACDIYIWAPLAGTCGVLLLSLVITLYCKRGRKKLLYIFKQPFMRPVQTTQEEDGCSCRFPEEEEGGCELRVKFSRSADAPAYKQGQNQLYNELNLGRREEYDVLDKRRGRDPEMGGKPRRKNPQEGLYNELQKDKMAEAYSEIGMKGERRRGKGHDGLYQGLSTATKDTYDALHMQALPPR
# B4: BCMA-1 CAR (139100) (protein)
# chain: QVQLVQSGAEVRKTGASVKVSCKASGYIFDNFGINWVRQAPGQGLEWMGWINPKNNNTNYAQKFQGRVTITADESTNTAYMEVSSLRSEDTAVYYCARGPYYYQSYMDVWGQGTMVTVSSASGGGGSGGRASGGGGSDIVMTQTPLSLPVTPGEPASISCRSSQSLLHSNGYNYLNWYLQKPGQSPQLLIYLGSKRASGVPDRFSGSGSGTDFTLHITRVGAEDVGVYYCMQALQTPYTFGQGTKLEIKTTTPAPRPPTPAPTIASQPLSLRPEACRPAAGGAVHTRGLDFACDIYIWAPLAGTCGVLLLSLVITLYCKRGRKKLLYIFKQPFMRPVQTTQEEDGCSCRFPEEEEGGCELRVKFSRSADAPAYKQGQNQLYNELNLGRREEYDVLDKRRGRDPEMGGKPRRKNPQEGLYNELQKDKMAEAYSEIGMKGERRRGKGHDGLYQGLSTATKDTYDALHMQALPPR
# Target: B-cell maturation antigen (BCMA) expressed on cells (human), Q02223
# Experiment: cell-based or functional assay
# Chain of B-cell maturation antigen (BCMA) expressed on cells (human), Q02223 (Q02223 whole entry): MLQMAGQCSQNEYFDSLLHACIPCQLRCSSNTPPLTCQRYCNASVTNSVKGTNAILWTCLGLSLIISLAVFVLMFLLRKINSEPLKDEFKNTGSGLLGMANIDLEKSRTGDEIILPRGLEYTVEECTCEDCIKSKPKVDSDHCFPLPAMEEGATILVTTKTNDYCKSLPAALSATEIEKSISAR
"JNL binding assay, ratio to K562; K562-BCMA","JNL binding assay, ratio to K562; NCI-H929","JNL binding assay, ratio to K562; RPMI 8226","Proliferation, CD3 ratio to no target; K562-BCMA","Proliferation, CD3 ratio to no target; KMS11-luc","Proliferation, CD3 ratio to no target; NCI-H929","Proliferation, CD3 ratio to no target; RPMI 8226","Proliferation, CD4 ratio to no target; K562-BCMA","Proliferation, CD4 ratio to no target; KMS11-luc",Binder,Cell killing EC50; KMS11-luc
2.34,2.34,2.4,1.62,1.61,1.72,1.73,2.19,1.9,B1,0.21 not printed
4.47,3.31,6.25,7.37,8.63,8.64,8.14,9.21,8.6,B2,0.13 not printed
2.55,2.36,2.77,1.72,1.71,1.8,1.62,2.17,1.96,B3,0.15 not printed
4.6,4.55,5.06,1.59,1.38,4.97,2.96,1.57,1.24,B4,0.68 not printed

# Same assay, conditions: not given
"Proliferation, CD4 ratio to no target; NCI-H929","Proliferation, CD4 ratio to no target; RPMI 8226","Proliferation, CD8 ratio to no target; K562-BCMA","Proliferation, CD8 ratio to no target; KMS11-luc","Proliferation, CD8 ratio to no target; NCI-H929","Proliferation, CD8 ratio to no target; RPMI 8226",Binder
2.23,2.15,0.99,1.27,1.11,1.25,B1
9.86,10.1,5.66,8.74,7.42,6.19,B2
2.23,1.91,1.08,1.35,1.18,1.19,B3
5.57,2.43,1.61,1.56,4.14,3.58,B4
